Laboratory results taken from publication PMC3651084.

Target: recombinant human HER3-Fc chimera (UniProt P21860)
Assay: flow cytometry on staphylococcal-displayed mutants
Settings: parent: est. 83; read off a plot

Sequence of UniProt P21860 (P21860 20-643, change not shown): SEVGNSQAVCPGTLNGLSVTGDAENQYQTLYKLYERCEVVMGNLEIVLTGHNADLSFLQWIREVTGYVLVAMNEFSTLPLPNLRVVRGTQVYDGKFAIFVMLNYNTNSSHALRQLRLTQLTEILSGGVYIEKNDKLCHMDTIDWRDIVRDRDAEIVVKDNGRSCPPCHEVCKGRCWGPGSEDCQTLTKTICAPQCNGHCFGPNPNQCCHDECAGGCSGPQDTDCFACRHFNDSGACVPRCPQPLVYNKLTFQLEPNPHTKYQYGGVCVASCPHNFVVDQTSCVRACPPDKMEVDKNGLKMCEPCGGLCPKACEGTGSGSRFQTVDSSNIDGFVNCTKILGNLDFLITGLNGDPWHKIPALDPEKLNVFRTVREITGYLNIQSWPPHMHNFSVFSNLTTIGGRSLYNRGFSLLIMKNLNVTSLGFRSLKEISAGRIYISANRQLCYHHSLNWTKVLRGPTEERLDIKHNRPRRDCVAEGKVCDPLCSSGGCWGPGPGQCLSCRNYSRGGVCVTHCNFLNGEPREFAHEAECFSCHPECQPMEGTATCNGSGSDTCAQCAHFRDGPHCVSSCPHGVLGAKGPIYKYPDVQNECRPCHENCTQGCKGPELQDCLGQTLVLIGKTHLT

Row | Substance | response
1 | HER3-binding Affibody molecule Z05416, displayed on S. carnosus W17A | 10
2 | HER3-binding Affibody molecule Z05416, displayed on S. carnosus Y10A | 10
3 | HER3-binding Affibody molecule Z05416, displayed on S. carnosus Y13A | 66
4 | HER3-binding Affibody molecule Z05416, displayed on S. carnosus K27A | 100
5 | HER3-binding Affibody molecule Z05416, displayed on S. carnosus F14A | 72
6 | HER3-binding Affibody molecule Z05416, displayed on S. carnosus R25A | 91
7 | HER3-binding Affibody molecule Z05416, displayed on S. carnosus Q35A | 92
8 | HER3-binding Affibody molecule Z05416, displayed on S. carnosus A28L | 87

Results, then the substance that gave them:

Row | response | Substance
9 | 93 | HER3-binding Affibody molecule Z05416, displayed on S. carnosus S32A
10 | 71 | HER3-binding Affibody molecule Z05416, displayed on S. carnosus Q18A
11 | 86 | HER3-binding Affibody molecule Z05416, displayed on S. carnosus T11A
12 | 78 | HER3-binding Affibody molecule Z05416, displayed on S. carnosus V24A
13 | 43 | HER3-binding Affibody molecule Z05416, displayed on S. carnosus K9A
